{"source": "paper PMC7318764", "about": "“Shrimp miR-965 induced the human melanoma stem-like cell apoptosis and inhibited their stemness by disrupting the MCL-1-ER stress-XBP1 feedback loop in a cross-species manner”", "target": "Ago2 (human, UniProt Q9UKV8 1-859)", "sequence (Q9UKV8 whole entry)": "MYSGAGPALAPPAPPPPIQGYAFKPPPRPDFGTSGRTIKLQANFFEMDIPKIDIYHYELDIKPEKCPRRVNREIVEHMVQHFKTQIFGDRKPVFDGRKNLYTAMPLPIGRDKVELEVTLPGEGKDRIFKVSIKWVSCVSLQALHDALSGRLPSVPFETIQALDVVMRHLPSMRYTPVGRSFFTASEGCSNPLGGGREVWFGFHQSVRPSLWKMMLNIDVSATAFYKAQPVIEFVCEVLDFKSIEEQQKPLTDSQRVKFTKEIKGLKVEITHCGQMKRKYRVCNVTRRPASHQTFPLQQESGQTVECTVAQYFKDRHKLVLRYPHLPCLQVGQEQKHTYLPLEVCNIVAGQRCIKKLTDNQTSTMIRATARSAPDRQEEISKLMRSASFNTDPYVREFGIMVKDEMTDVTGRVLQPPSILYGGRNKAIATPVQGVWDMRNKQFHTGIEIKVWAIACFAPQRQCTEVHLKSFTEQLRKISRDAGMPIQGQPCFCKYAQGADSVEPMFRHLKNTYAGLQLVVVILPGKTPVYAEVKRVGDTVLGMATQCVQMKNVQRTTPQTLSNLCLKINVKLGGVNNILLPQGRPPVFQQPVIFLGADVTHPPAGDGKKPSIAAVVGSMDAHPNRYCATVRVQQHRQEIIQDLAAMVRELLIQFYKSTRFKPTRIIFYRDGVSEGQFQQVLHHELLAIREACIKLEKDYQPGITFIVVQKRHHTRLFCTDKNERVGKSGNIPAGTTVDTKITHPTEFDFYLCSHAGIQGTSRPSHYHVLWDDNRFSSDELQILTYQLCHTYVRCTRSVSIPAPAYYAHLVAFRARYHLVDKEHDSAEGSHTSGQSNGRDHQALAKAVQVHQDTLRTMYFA", "experiment": "EMSA; Ago2 12.5, 25, 50, 100 mM (so in the source) with 40 mM miR-965; 1 mM MgCl2; shifted band increases with Ago2; 0.1 M KCl, 1 mM DTT, 1 mM MgCl2, 10 mM HEPES pH 7.6, 30 min at 37 C; 1% agarose gel, ethidium bromide then Coomassie stain", "conditions": "protein: recombinant; single strand printed"}
{"binder": "UAAGCGUAUGGCUUUUCCCCUC (ssRNA)", "note": "[shrimp miR-965]", "values": [{"measurement": "binding result", "result": "binds"}]}
